Reference: US20130273553A9, “STABILIZATION OF CYCLIC PEPTIDE STRUCTURES” (priority 2007, published 2013)

Legend:
[1] = tested on: SOS-regulated sulA promoter (sulA-GFP); assay: MMC-induced expression of sulA-GFP (SOS response genes), flow cytometry; type: cell-based, E. coli; details: SMR6039-DE3 with pETIL-L2, IPTG-induced versus uninduced, 0.1 μg/mL MMC
Description: (§1) FIG. 21. Biological Activity of L2 Lariat and Cyclic Peptide.
We used the SMR6039 E. coli strain, which expresses GFP under the control of a SOS-regulated sulA promoter (Hastings, P. J. et al. (2004) PLoS Biol. 2:e399) to monitor induction of the SOS response pathway. We used the λDE3 Lysogenization Kit (Novagen) to modify SMR6039 to express T7 RNA polymerase, which allows expression of the L.2 lariat from the T7 promoter in pETIL-L2 plasmid. […] We measured the GFP fluorescence of the samples using flow cytometery (Epics X L, Coultier, Mississauga, ON). We scored cells as positive for SOS induction in they expressed more than one fluorescence unit of GFP.

[2] = Amount of lactone-cyclized L2 lariat, ESI-TOF MS and Na18OH cleavage; type: physicochemical
Description: FIG. 17. Analysis of L2 Lariat. […] (i) Yeast growth on nonselective His^−,Trp^− glucose media. […] (i) Lariat cyclized through a lactone bond. (ii) Lariat cleaved prior to Na^18OH treatment.
FIG. 20. Quantification of Lariat Prior to MS analysis. (a) Analysis of ^18O incorporation at the tyrosine carboxylic acid at position (IN−1). Trypsin digest of the Na^18OH treated lariat produces a peptide fragment containing tyrosine at position (IN−1) ([…]). The ^16O product has a calculated mass of 966.420 m/z and the ^18O product has a calculated mass of 968.420 m/z. (b) Mass spectrometry analysis of […] peptide fragment from the Na^16OH or Na^18OH treated samples over layed with the theoretical isotope distribution (MS-ISOTOPE software). In the Na^18OH treated sample there is a large deviation from the theoretical distribution indicating the presence of more than one peptide. […] The 1+ and 2+ charged fragments were analyzed and similar results were observed. Only the 1+ charge is shown. (d) Overlay of the sum of the calculated contributions of the ^18O and […] on the observed […] peptide fragment spectrum. (e) Analysis of ^18O incorporation at the serine side chain at position (IC+1). Trypsin digest of the Na^18OH treated lariat produces a peptide fragment containing serine at position (IC+1) ([…]). The mass of this fragment is 2590.352 m/z corresponding to a product 1 Da heavier than the predicted ^18O incorporated product. A 1 Da shift can be attributed to deamidation of asparagine. […] The 2+, 3+4+and 5+charged fragments were analyzed and similar results were obtained. […] (h) Overlay of the sum of the calculated contributions of the ^18O and ^16O peptides on the observed […] peptide fragment spectrum.
We used LC-ESI-TOF MS to confirm the molecular weight of the His-tag lariat purified from E. coli. To confirm the presence of the lariat lactone prior to MS analysis, we treated His-tag lariat with 0.5 M Na^18OH, purified the products using reverse-phase HPLC, digested them with trypsin, and analyzed the molecular weight of the trypsin fragments using LC-ESI-TOF MS. […]

BL21-CP cells = assay: Bacterial viability (survival) assay with and without MMC; type: cell-based, E. coli; details: one hour
Description: as §1
FIG. 22. […] Survival assay for BL21-CP cells treated synthetic linear L2 peptide. Cell survival is reported relative to the untreated control.
We performed cell viability assays as described by Lin and Little (Lin, L. L. & Little, J. W. (1988) Bacteriol. 170:2163-2173). For assays where L2 lariat is expressed from pET28b plasmid, we cultured BL21(DE3)-CP containing pETIL-L2 or pETIL-01 to an OD600 of 0.4 in LB-KAN at 37° C. We split the samples in two and induced one sample with 1 mM IPTG for 1 hour and left the other the other sample uninduced. […] We removed 10 μL and diluted it […] in ice cold LB (1 mL) for a zero time point control. We incubated the remaining sample at 37° C. for 1 hour and then removed 10 μL and diluted 1000-fold into 1 mL ice-cold LB. We plated a 60 μl aliquot from the 0 and 1 hour samples on LB plates and incubated the plates at 37° C. overnight.

LexA = LexA (Escherichia coli, UniProt P0A7C2); details: BL21-CP cells expressing the lariat, 0.1 μg/mL MMC, 0-3 hours
Sequence of LexA (P0A7C2 whole entry): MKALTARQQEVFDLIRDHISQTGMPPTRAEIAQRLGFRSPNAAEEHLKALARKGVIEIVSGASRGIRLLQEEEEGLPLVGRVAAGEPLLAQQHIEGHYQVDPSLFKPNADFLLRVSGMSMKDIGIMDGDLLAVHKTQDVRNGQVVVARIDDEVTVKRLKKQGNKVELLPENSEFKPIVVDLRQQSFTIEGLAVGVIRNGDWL
Description: FIG. 21. Biological Activity of L2 Lariat and Cyclic Peptide. […] Error bars represent the standard deviation of three independent experiments.

[3] = His-tag lariat from pETIL-L2 in BL21-CP

L2 lariat: anti-LexA lariat, lactone-cyclized noose sequence (RSWDLPGEY), expressed from Ssp DnaE lariat intein with Asn to Ala at IC−1 (G7)
percentage of GFP expressing cells (sulA-GFP) after MMC [1]: decreases | fraction of product corresponding to hydrolyzed lariat (8669 Da) by MS [2, 3]: 85% | fraction of product corresponding to the L2 lariat (8651 Da) by MS [2, 3]: 15% | lariat cyclized prior to MS analysis ([2]; from fraction of 18O incorporated after Na18OH cleavage and trypsin digest): 46% | viability with lariat expression plus MMC (BL21-CP cells; of the control, IPTG induction plus MMC 0.1 μg/mL): < 1% | viability on expression of the lariat alone (BL21-CP cells; of the uninduced controls, IPTG induction, no MMC, 0.85% NaCl): ~35% | MMC-induced LexA cleavage (LexA): not observed after three hours
